Here are results for two molecules from patent US20200223915A1 (OSAKA UNIVERSITY, published 2020).

Test [1] concerns the target T1, wild-type human Claudin 7 protein (human, UniProt O95471 1-211).
T1 construct: Expressed on cells by retrovirus; Wording leaves open whether the entry is the protein or the DNA; also called hCLDN7
T1 sequence: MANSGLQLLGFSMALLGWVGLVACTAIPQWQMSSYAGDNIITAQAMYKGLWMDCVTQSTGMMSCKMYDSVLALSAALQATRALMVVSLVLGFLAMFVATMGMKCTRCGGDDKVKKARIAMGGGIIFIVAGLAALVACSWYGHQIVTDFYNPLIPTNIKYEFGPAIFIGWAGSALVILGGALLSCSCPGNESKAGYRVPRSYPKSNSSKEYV
Put plainly: FACS on Claudin-expressing cells. As to the method: (§1) The cells were washed three times with 0.2% BSA-TBS, and then mixed with 100 μL of a secondary antibody solution (FITC conjugated goat anti-mouse IgG+IgM in 1% BSA-PBS (1:400)), followed by a reaction at 4° C. for 1 hour. The cells were washed with 0.2% BSA-TBS, and FACS analysis (FACS caliber, BD Bioscience) was performed.

The target of test [2] is T2, wild-type mouse Claudin 3 protein (mouse, UniProt Q9Z0G9 1-219).
T2 construct: Expressed on cells by retrovirus; Wording leaves open whether the entry is the protein or the DNA; also called mCLDN3
T2 sequence: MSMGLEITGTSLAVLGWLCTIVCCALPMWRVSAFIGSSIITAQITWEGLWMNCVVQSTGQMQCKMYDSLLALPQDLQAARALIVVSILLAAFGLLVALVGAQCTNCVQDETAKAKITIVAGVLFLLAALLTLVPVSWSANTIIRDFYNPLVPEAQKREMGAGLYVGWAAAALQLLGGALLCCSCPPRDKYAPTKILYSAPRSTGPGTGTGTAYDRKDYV
Kind of test: FACS on Claudin-expressing cells. As to the method:
as §1

Test [3] has as its target T3, wild-type mouse Claudin 5 protein (mouse, UniProt O54942 1-218).
T3 construct: also called mCLDN5
T3 sequence: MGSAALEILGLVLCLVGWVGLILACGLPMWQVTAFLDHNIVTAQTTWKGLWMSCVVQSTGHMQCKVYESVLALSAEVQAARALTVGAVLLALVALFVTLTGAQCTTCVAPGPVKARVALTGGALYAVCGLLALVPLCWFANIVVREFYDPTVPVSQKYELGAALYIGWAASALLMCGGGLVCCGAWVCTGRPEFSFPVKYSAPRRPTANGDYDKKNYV
Kind of test: FACS on Claudin-expressing cells. How it is done:
as §1

In test [4] the target is T4, wild-type rat Claudin 5 protein (rat, UniProt Q9JKD6 1-218).
T4 sequence: T3 sequence with V127L, P206T
Kind of test: FACS on Claudin 5-expressing cells (species comparison). As to the method:
as §1
FIG. 5 illustrates histograms with the horizontal axis representing the fluorescence signal, and the vertical axis representing the cell count. FIG. 6 illustrates a comparison of the amino acid. sequences of Claudin 5 protein of different species.

Test [5] addresses T5, wild-type human Claudin 5 protein (human, UniProt O00501 1-218).
T5 construct: also called hCLDN5; CLDN 5
T5 sequence: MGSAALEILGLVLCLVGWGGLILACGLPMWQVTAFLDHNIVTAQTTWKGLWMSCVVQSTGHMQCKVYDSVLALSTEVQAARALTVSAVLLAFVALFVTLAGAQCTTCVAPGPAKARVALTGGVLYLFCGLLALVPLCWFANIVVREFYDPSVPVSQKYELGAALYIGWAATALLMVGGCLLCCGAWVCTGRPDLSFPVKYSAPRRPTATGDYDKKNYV
Put plainly: FACS on human Claudin 5-expressing HT-1080 cells; 50% saturation of the MFI binding curve. How it is done: as §1

Where a chain is given by its changes, count along the chain named.

B1: antibody 2B1 (antibody, IgG2a, V domains shown)
VH: QVQLQQPGAELVKPGASVKLSCKASGYTFTTFWIHWVKQRPGRGLEWIGRIAPYSGGTTYNEKFKSKATLTVDRPSTTAYMQLISLTSEDSAVYYCARWDFTYGSNLDYWGQGTTLTVSS
VL: DIVMTQSQKFMSTSVGDRVSIPCKASQNVRTAVAWYQQKPGQSPKALIYLASNRHTGVPDRFTGSGSGTDFTLTISNVQSEDLADYFCLGHWDYPYTFGGGTKLEIKR
notes: also called antibody B
In the case of B1, the binding result in test [1], in test [2], in test [3] and in test [4] was “no binding (tested: 10 µg/mL)” throughout. The molecule also showed a Kd in test [5] of 6.9 nM.

B2: antibody 2B12 (antibody, IgG2a, V domains shown)
VH: QVQLQQSGAELARPGASVKLSCKASGYTFTRFGMSWVKQRTGQGLEWIGEIYPGSGDTYYSENFKGKATLTADKSSGTAYMELRSLTSEDSAVYFCARWGIYYGNPYAMDYWGQGTSVTVSS
VL: DIVMTQAAPSVPVTPGESVSISCRSSKSLLHSNGNTYLYWFLQRPGQSPQLLIYRMSNLASGVPDRFSGSGSGTAFTLRISRVEAEDVGVYYCLQHLEYPFTFGSGTKLEIKR
notes: also called antibody A
As to B2, the binding result in test [1], in test [2], in test [3] and in test [4] was “no binding (tested: 10 µg/mL)” throughout. The same molecule registered a Kd in test [5] of 7.3 nM.

The Kd is the concentration at which binding is half-saturated.
